# Experimental data taken from article PMC3610634 (PLoS Genetics, 2013).
# Molecular target: the molecule itself
# Assay: solubility assay (sedimentation) + TEM; recombinant fibrils in 50 mM HEPES, pH 7.5; solubility assay 16.000 g, 30 min, 4°C; negative staining with 1% uranyl acetate
protein,measurement,value
"recombinant full-length Ure2p fibrils (natural protein, yeast, UniProt P23202 1-354, looked up) MMNNNGNQVSNLSNALRQVNIGNRNSNTTTDQSNINFEFSTGVNNNNNNNSSSNNNNVQNNNSGRNGSQNNDNENNIKNTLEQHRQQQQAFSDMSHVEYSRITKFFQEQPLEGYTLFSHRSAPNGFKVAIVLSELGFHYNTIFLDFNLGEHRAPEFVSVNPNARVPALIDHGMDNLSIWESGAILLHLVNKYYKETGNPLLWSDDLADQSQINAWLFFQTSGHAPMIGQALHFRYFHSQKIASAVERYTDEVRRVYGVVEMALAERREALVMELDTENAAAYSAGTTPMSQSRFFDYPVWLVGDKLTIADLAFVPWNNVVDRIGINIKIEFPEVYKWTKHMMRRPAVIKALRGE",binding result,binds
